Numbering of substitutions follows the chain as printed. Names and notes keep the numbering of the source. Like-named read-outs stand apart in the source and are kept apart here.
What was measured:
[1] = target: T1, recombinant human IL-12 (rhIL-12) (human, UniProt P29459 23-219; P29460 23-328); experiment: cell-based or functional assay
T1 sequence (looked up) 1: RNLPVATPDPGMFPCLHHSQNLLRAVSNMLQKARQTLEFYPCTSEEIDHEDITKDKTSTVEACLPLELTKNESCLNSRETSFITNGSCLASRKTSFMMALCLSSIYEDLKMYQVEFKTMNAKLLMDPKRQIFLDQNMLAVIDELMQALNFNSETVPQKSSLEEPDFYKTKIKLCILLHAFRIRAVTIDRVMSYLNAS
T1 sequence (looked up) 2: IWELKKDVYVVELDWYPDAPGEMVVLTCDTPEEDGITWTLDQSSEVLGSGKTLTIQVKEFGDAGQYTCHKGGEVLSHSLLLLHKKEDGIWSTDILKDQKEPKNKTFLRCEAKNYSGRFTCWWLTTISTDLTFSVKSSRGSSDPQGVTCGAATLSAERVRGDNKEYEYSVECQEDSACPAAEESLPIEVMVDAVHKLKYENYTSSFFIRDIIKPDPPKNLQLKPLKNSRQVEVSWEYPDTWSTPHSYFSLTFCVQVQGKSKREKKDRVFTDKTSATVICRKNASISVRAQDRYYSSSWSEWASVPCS

[2] = target: T1, recombinant human IL-12 (rhIL-12); experiment: BIAcore SPR
[3] = target: T1, recombinant human IL-12 (rhIL-12); experiment: cell-based or functional assay; remark: listed apart in the source
[4] = target: T1, recombinant human IL-12 (rhIL-12); experiment: receptor binding assay, 125I-hIL-12 on PHA blasts
Method: (§1) PHA blast cells isolated as described above, were washed once and resuspended in binding buffer to a cell density of 2×10⁷ cells/ml. […] The cell pellet was examined for cell bound radioactivity using a gamma counter. […] Incubations were carried out in duplicate.

[5] = target: T2, human interleukin 12 (p70 heterodimer of p35 and p40) (human, UniProt P29459 23-219; P29460 23-328); experiment: BIAcore
T2 construct: Recombinant human IL-12; p35 and p40 linked by a disulfide bridge; also called hIL-12; IL-12
T2 sequence (looked up) 1: T1 sequence (looked up) 1
T2 sequence (looked up) 2: T1 sequence (looked up) 2

[6] = target: T3, human IL-12 (human, UniProt P29459 23-219; P29460 23-328); experiment: cell-based or functional assay
T3 sequence (looked up) 1: T1 sequence (looked up) 1
T3 sequence (looked up) 2: T1 sequence (looked up) 2

[7] = target: T3, human IL-12; experiment: SPR (BIAcore), IL-12 chip
Description: The system utilizes the optical properties of SPR to detect alterations in protein concentrations within a dextran biosensor matrix. Proteins are covalently bound to the dextran matrix at known concentrations. […] To determine the off rate (koff), on rate (kₒₙ), association rate (Ka) and dissociation rate (Kd) constants, BIAcore kinetic evaluation software (version 2.1) was used.

[8] = target: T3, human IL-12; experiment: RB assay: 125I-hIL-12 binding to PHA blasts
Method: as §1

[9] = target: T2, human interleukin 12 (p70 heterodimer …); experiment: BIAcore; remark: listed apart in the source

B1: 136-15 (scFv)
chain: QVQLVQSGGGVVQPGRSLRLSCAASGFTFSSYGMHWVRQAPGKGLEWVAFIRYDGSNKYYADSVKGRFTISRDNSKNTLYLQMKSLRAEDTAVYYCKTHGSHDNWGQGTMVTVSSSYVLTQPPSVSGTPGQRVTISCSGSRSNIGSNTVKWYQQLPGTAPKLLIYGNDQRPSGVPDRFSGSKSGTSASLAITGVQAEDEADYYCQTYDKGFTGSSVFGTGTKVTVLG
For B1, the “PHA assay IC50 (M) p70:p40 1:0” value [1] was 2e-09 M, the “PHA assay IC50 (M) p70:p40 1:20” value [1] was 5e-09 M and the “PHA assay IC50 (M) p70:p40 1:50” value [1] was 4e-09 M.

B2: 149-6 (scFv)
chain: B1 chain with K97T, S140G, G145V, T206S, K209R, S215R
B2 was tested, and the “PHA assay IC50 (M) p70:p40 1:0” value [1] was 9e-10 M, the “PHA assay IC50 (M) p70:p40 1:20” value [1] was 1e-09 M and the “PHA assay IC50 (M) p70:p40 1:50” value [1] was 1e-09 M.

B3: 149-5 (scFv)
chain: B1 chain with K97T, N104T, S140G, T206S, K209S, G210S, F211L, T212W, S214T, S215R
With B3 the “PHA assay IC50 (M) p70:p40 1:0” value [1] was 6.5e-09 M, the “PHA assay IC50 (M) p70:p40 1:20” value [1] was 7e-09 M and the “PHA assay IC50 (M) p70:p40 1:50” value [1] was 4e-09 M.

B4: AO3 IgG1 (antibody, V domains shown)
VH: QVQLVQSGGGVVQPGRSLRLSCAASGFTFSSYGMHWVRQAPGKGLEWVAFIRYDGSNKYYADSVKGRFTISRDNSKNTLYLQMKSLRAEDTAVYYCKTHGSHDNWGQGTMVTVSS
VL: SYVLTQPPSVSGTPGQRVTISCSGGRSNIGSNTVKWYQQLPGTAPKLLIYGNDQRPSGVPDRFSGSKSGTSASLAITGVQAEDEADYYCQSYDRGTHPLTMFGTGTKVTVLG
notes: IgG1
B4 was tested, and the koff [2] was 0.000304 s⁻¹, the “PHA assay IC50” value [3] was 0.38 nM and the “PHA assay IC50 (M) p70:p40 1:0” value [1] was 2.5e-10 M. The “PHA assay IC50 (M) p70:p40 1:50” value [1] was 2.2e-10 M and the IC50 [4] was 0.029 nM.

B5: Y61-L30K (scFv, V domains shown)
VH: B4 VH
VL: SYVLTQPPSVSGTPGQRVTISCSGGRSNIGKNTVKWYQQLPGTAPKLLIYGNDQRPSGVPDRFSGSKSGTSASLAITGVQAEDEADYYCQSYDRGTHPALLFGTGTKVTVL
notes: copies: 1 + 1
B5 was tested, and the koff [5] was 0.000346 s⁻¹.

B6: 149-6 (scFv, V domains shown)
VH: B4 VH with K97T
VL: B4 VL with G30V, T96F, H97T, P98G, L99S, T100R, M101V
notes: scFv
In the case of B6, the “PHA assay IC50” value [6] is reported as 2 nM, the koff [7] is reported as 0.00273 s⁻¹ and the IC50 [8] is reported as 0.6 nM.

B7: Y61-L30C (scFv, V domains shown)
VH: B4 VH
VL: B5 VL with K31C
notes: copies: 1 + 1
Work on B7 yielded a koff [5] of 0.000186 s⁻¹.

B8: Y61-L30D (scFv, V domains shown)
VH: B4 VH
VL: B5 VL with K31D
notes: copies: 1 + 1
For B8, the koff [5] was 0.00022 s⁻¹.

B9: Y61-L30Y (scFv, V domains shown)
VH: B4 VH
VL: B5 VL with K31Y
notes: copies: 1 + 1
For B9, the koff [5] was 0.000483 s⁻¹.

B10: Y61-L30N (scFv, V domains shown)
VH: B4 VH
VL: B5 VL with K31N
notes: copies: 1 + 1
B10 gave a koff [5] of 0.000166 s⁻¹.

B11: Y61-L30R (scFv, V domains shown)
VH: B4 VH
VL: B5 VL with K31R
notes: copies: 1 + 1
B11 was tested, and the koff [5] was 0.000182 s⁻¹.

B12: Y61-L94N (scFv, V domains shown)
VH: B4 VH
VL: B5 VL with K31S, G95N
For B12, the koff [9] was 0.000137 s⁻¹ and the “PHA assay IC50” value [3] was 0.08 nM.

B13: Y61-L94Y (scFv, V domains shown)
VH: B4 VH
VL: B5 VL with S1Q, Y2S, T13A, G25S, K31S, V79L, G95Y
B13 was tested, and the koff [9] was 0.000131 s⁻¹, the “PHA assay IC50” value [3] was 0.02 nM and the IC50 [4] was 0.02 nM.

B14: 103-7 (scFv, V domains shown)
VH: B4 VH with K97T, N104D
VL: B5 VL with K31S, G95D, T96F, H97T, P98G, A99T, L100R, L101V
notes: scFv
B14 was tested, and the “PHA assay IC50” value [6] was 1 nM, the koff [7] was 0.00037 s⁻¹ and the IC50 [8] was 0.14 nM.

B15: 103-14 & 9 (scFv, V domains shown)
VH: B4 VH
VL: B5 VL with K31S, T96F, H97T, P98G, A99S, L100M, L101V
notes: scFv
For B15, the “PHA assay IC50” value [6] was 1.2 nM, the koff [7] was 0.00067 s⁻¹ and the IC50 [8] was 0.04 nM.

B16: Y61-L94F (scFv, V domains shown)
VH: B4 VH
VL: B5 VL with K31S, G95F
In the case of B16, the koff [9] is reported as 0.000236 s⁻¹ and the “PHA assay IC50” value [3] is reported as 0.06 nM.

B17: 149-4 (scFv, V domains shown)
VH: B4 VH with K97T, G106S
VL: B5 VL with K31S, T96F, H97T, P98G, A99S, L100R, L101V
notes: scFv
For B17, the “PHA assay IC50” value [6] was 3 nM, the koff [7] was 0.00137 s⁻¹ and the IC50 [8] was 0.08 nM.

B18: 149-7 (scFv, V domains shown)
VH: B4 VH with K97T
VL: B5 VL with K31S, G95D, T96F, H97T, P98G, A99S, L100R, L101V
notes: scFv
B18 was tested, and the “PHA assay IC50” value [6] was 3 nM, the koff [7] was 0.00113 s⁻¹ and the IC50 [8] was 0.9 nM.

B19: 103-8 (scFv, V domains shown)
VH: B4 VH
VL: B5 VL with K31S, S91T, R94K, T96F, H97T, P98G, A99S, L100S, L101V
notes: scFv
With B19 the “PHA assay IC50” value [6] was 1.5 nM, the koff [7] was 0.00033 s⁻¹ and the IC50 [8] was 0.06 nM.

B20: 136-15 (scFv, V domains shown)
VH: B4 VH
VL: B4 VL with G25S, S91T, R94K, T96F, H97T, P98G, L99S, T100S, M101V
notes: scFv
With B20 the “PHA assay IC50” value [6] was 2 nM, the koff [7] was 0.00074 s⁻¹ and the IC50 [8] was 0.1 nM.

B21: Y17 (scFv, V domains shown)
VH: B4 VH
VL: B5 VL with K31S, T96S, H97A, A99M, L100I, L101N
notes: scFv
For B21, the “PHA assay IC50” value [6] was over 10 nM, the koff [7] was 8.9e-05 s⁻¹ and the IC50 [8] was 0.45 nM.

B22: Y61 IgG germline (antibody, V domains shown)
VH: B4 VH with Q6E, K84N
VL: B5 VL with S1Q, Y2S, T13A, G25S, K31S, V79L
In the case of B22, the koff [2] is reported as 0.00015 s⁻¹, the “IFN gamma IC50” value [3] is reported as 0.16 nM and the “PHA assay IC50” value [3] is reported as 0.13 nM. For the same binder, the IC50 [4] was 0.016 nM.

B23: 149-11 (scFv, V domains shown)
VH: B4 VH with K97T, G106S
VL: B5 VL with K31S, R94N, T96F, H97T, P98G, L100R, L101V
notes: scFv
With B23 the “PHA assay IC50” value [6] was 4 nM, the koff [7] was 0.0143 s⁻¹ and the IC50 [8] was 0.2 nM.

B24: 149-5 (scFv, V domains shown)
VH: B4 VH with K97T, N104T
VL: B4 VL with R94S, G95S, T96L, H97W, P98G, L99T, T100R, M101V
notes: scFv
In the case of B24, the “PHA assay IC50” value [6] is reported as 3 nM, the koff [7] is reported as 0.00102 s⁻¹ and the IC50 [8] is reported as 0.12 nM.

B25: AO3 IgG germline (antibody, V domains shown)
VH: B4 VH with Q6E, K84N
VL: B5 VL with S1Q, Y2S, T13A, G25S, K31S, V79L, A99L, L100T, L101M
notes: IgG with germline frameworks as named; only the CDR3s are tied to it
In the case of B25, the koff [2] is reported as 0.00025 s⁻¹, the “PHA assay IC50” value [3] is reported as 0.175 nM and the IC50 [4] is reported as 0.035 nM.

From patent US20150037348A1 (AbbVie / Abbott, published 2015)
